Assay results from US20250076311A1 (Chugai, published 2025).

T1: human FcγRIIaR extracellular domain with C-terminal His-tag (human, UniProt P12318 34-217)
T1 construct: also called human FcgRIIaR; FcγRIIa (type R); not shown: His-tag added to C-terminus
T1 chain: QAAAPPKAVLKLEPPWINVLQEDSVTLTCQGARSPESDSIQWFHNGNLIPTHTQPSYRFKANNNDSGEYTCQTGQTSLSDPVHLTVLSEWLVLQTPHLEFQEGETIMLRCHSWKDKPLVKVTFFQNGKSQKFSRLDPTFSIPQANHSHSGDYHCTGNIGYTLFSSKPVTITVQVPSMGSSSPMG

T2: cynomolgus monkey FcγRIIb extracellular domain with C-terminal His-tag (cynomolgus monkey)
T2 construct: also called cyno FcgRIIb; cynoFcγRIIb; not shown: His-tag added to C-terminus
T2 chain: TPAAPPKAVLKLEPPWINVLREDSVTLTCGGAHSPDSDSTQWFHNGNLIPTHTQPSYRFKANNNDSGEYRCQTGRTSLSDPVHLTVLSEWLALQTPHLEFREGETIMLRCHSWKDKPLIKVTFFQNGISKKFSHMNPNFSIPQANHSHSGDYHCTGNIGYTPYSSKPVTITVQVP

T3: cynomolgus monkey FcγRIIa2 extracellular domain with C-terminal His-tag (cynomolgus monkey)
T3 construct: also called cyno FcgRIIa2; cynoFcγRIIa2; not shown: His-tag added to C-terminus
T3 chain: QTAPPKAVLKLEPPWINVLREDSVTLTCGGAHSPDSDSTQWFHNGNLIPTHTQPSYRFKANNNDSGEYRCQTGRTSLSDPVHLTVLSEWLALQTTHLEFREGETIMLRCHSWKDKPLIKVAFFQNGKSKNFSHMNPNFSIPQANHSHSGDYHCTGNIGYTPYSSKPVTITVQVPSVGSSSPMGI

T4: human FcγRIIb extracellular domain with C-terminal His-tag (human, UniProt P31994 43-217)
T4 construct: also called human FcgRIIb; not shown: His-tag added to C-terminus
T4 sequence: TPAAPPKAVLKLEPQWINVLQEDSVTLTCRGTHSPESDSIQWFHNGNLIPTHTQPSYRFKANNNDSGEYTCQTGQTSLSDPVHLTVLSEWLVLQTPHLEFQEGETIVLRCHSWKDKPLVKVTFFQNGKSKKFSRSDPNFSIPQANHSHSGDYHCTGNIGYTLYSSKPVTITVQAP

T5: cynomolgus monkey FcγRIIa3 extracellular domain with C-terminal His-tag (cynomolgus monkey)
T5 construct: also called cyno FcgRIIa3; cynoFcγRIIa3; not shown: His-tag added to C-terminus
T5 chain: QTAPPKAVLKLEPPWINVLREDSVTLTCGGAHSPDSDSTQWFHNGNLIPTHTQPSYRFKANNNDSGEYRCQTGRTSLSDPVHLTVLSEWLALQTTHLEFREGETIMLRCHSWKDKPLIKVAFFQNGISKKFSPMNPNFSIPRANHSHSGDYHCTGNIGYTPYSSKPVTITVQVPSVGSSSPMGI


Key:
Experiment in all cases: SPR Biacore, antibody captured, FcgR analyte
[1] = molecular target: T1, human FcγRIIaR extracellular domain …
[2] = molecular target: T6, cynomolgus monkey FcγRIIIaS extracellular domain with C-terminal His-tag (cynomolgus monkey, UniProt A3RFZ7 21-206 (rhesus entry))
T6 construct: also called cyno FcgRIIIaS; cynoFcγRIIIaS; not shown: His-tag added to C-terminus
T6 sequence (A3RFZ7 21-206): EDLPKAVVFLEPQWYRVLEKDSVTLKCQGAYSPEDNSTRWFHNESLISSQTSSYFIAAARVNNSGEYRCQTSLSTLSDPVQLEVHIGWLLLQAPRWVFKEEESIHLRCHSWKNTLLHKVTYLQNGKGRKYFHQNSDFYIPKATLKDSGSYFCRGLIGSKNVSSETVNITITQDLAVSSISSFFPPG

[3] = molecular target: T2, cynomolgus monkey FcγRIIb extracellular …
[4] = molecular target: T3, cynomolgus monkey FcγRIIa2 …
[5] = molecular target: T4, human FcγRIIb extracellular domain with …
[6] = molecular target: T7, human FcγRIIIaV extracellular domain with C-terminal His-tag (human, UniProt P08637 17-208)
T7 construct: also called human FcgRIIIaV; not shown: His-tag added to C-terminus
T7 sequence (P08637 17-208 F176V): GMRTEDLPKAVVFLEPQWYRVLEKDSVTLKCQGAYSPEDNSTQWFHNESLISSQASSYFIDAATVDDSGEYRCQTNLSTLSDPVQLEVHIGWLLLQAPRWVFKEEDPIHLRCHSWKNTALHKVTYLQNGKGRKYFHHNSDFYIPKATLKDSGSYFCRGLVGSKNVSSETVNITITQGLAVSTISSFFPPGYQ

[7] = molecular target: T5, cynomolgus monkey FcγRIIa3 …

| Binder | KD fold (SG1 = 1) [1] [fold] | KD fold (SG1 = 1) [2] [fold] | Kd [2] [nM] | KD fold (SG1 = 1) [3] [fold] | KD fold (SG1 = 1) [5] [fold] | Kd [1] [nM] | other results |
| --- | --- | --- | --- | --- | --- | --- | --- |
| M103205H795-MY052/M103202L889-SK1 (antibody, human IgG1, kappa, name in EU numbering, substitutions in EU numbering, introduced into M103205H795-SG1) heavy: QVTLKESGPVLVKPTETLTLTCTVSGIDLSHDDISWVRQAPGKGLEWVGIISYAGSTYYASWAKGRLTISKDTSKNQVVLTMTNMDPVDTATYYCARGVPAYSHGGDLWGQGTLVTVSSASTKGPSVFPLAPSSKSTSGGTAALGCLVKDYFPEPVTVSWNSGALTSGVHTFPAVLQSSGLYSLSSVVTVPSSSLGTQTYICNVNHKPSNTKVDKKVEPKSCDKTHTCPPCPAPELLNGPSVFLFPPKPKDTLMISRTPEVTCVVVDVSEEDPEVKFNWYVDGVEVHNAKTKPREEQYNSTYRVVSVLTVLHQDWLNGKEYKCKVSNKALPAPIEKTISKAKGQPREPQVYTLPPSREEMTKNQVSLTCLVKGFYPSDIAVEWESNGQPENNYKTTPMVLDSDGSFFLYSKLTVDKSRWQQGNVFSCSVMHEALHNHYTQKSLSLSP light: DIVMTQSPATLSLSPGERATLSCTSSQSVYHANWLSWFQQKPGQPPKLLIYWASTLAYGVPSRFSGSGSGTDFTLTISSLQPEDAATYYCAGGYGGGRYAFGQGTKVEIKRTVAAPSVFIFPPSDEQLKSGTASVVCLLNNFYPREAKVQWKVDNALQSGNSQESVTEQDSKDSTYSLSSTLTLSKADYEKHKVYACEVTHQGLSSPVTKSFNRGEC | 0.1 | 0.24 | 1500 | 3.5 | – | – | – |
| M103205H795-MY168/M103202L889-SK1 (antibody, human IgG1, kappa, name in EU numbering, EU numbering) heavy: QVTLKESGPVLVKPTETLTLTCTVSGIDLSHDDISWVRQAPGKGLEWVGIISYAGSTYYASWAKGRLTISKDTSKNQVVLTMTNMDPVDTATYYCARGVPAYSHGGDLWGQGTLVTVSSASTKGPSVFPLAPSSKSTSGGTAALGCLVKDYFPEPVTVSWNSGALTSGVHTFPAVLQSSGLYSLSSVVTVPSSSLGTQTYICNVNHKPSNTKVDKKVEPKSCDKTHTCPPCPAPELLNGPSVFLFPPKPKDTLMISRTPEVTCVVVDVSEEDPEVKFNWYVDGVEVHNAKTKPREEQYNSTYRVVSVLTVLHQDWLNGKEYKCKVSNKALPAPIEKTISKAKGQPREPQVYTLPPSREEMTKNQVSLTCLVKGFYPSDIAVEWESNGQPENNYKTTPAVLDSDGSFFLYSKLTVDKSRWQQGNVFSCSVMHEALHNHYTQKSLSLSP light: DIVMTQSPATLSLSPGERATLSCTSSQSVYHANWLSWFQQKPGQPPKLLIYWASTLAYGVPSRFSGSGSGTDFTLTISSLQPEDAATYYCAGGYGGGRYAFGQGTKVEIKRTVAAPSVFIFPPSDEQLKSGTASVVCLLNNFYPREAKVQWKVDNALQSGNSQESVTEQDSKDSTYSLSSTLTLSKADYEKHKVYACEVTHQGLSSPVTKSFNRGEC | – | 0.08 | 4500 | – | – | 2800 | Kd [7]: 1000 nM; Kd [3]: 12 nM |
| M103205H795-MY434/M103202L889-SK1 (antibody, human IgG1, kappa, name in EU numbering, substitutions in EU numbering, introduced into M103205H795-SG1) heavy: QVTLKESGPVLVKPTETLTLTCTVSGIDLSHDDISWVRQAPGKGLEWVGIISYAGSTYYASWAKGRLTISKDTSKNQVVLTMTNMDPVDTATYYCARGVPAYSHGGDLWGQGTLVTVSSASTKGPSVFPLAPSSKSTSGGTAALGCLVKDYFPEPVTVSWNSGALTSGVHTFPAVLQSSGLYSLSSVVTVPSSSLGTQTYICNVNHKPSNTKVDKKVEPKSCDKTHTCPPCPAPELWNGPSVFLFPPKPKDTLMISRTPEVTCVVVDVSDEDPEVKFNWYVDGVEVHNAKTKPREEQYNSTYRVVSVLTVLHQDWLNGKEYKCKVSNKALPKPIEKTISKAKGQPREPQVYTLPPSREEMTKNQVSLTCLVKGFYPSDIAVEWESNGQPENNYKTTPPVLDSDGSFFLYSKLTVDKSRWQQGNVFSCSVMHEALHNHYTQKSLSLSP light: DIVMTQSPATLSLSPGERATLSCTSSQSVYHANWLSWFQQKPGQPPKLLIYWASTLAYGVPSRFSGSGSGTDFTLTISSLQPEDAATYYCAGGYGGGRYAFGQGTKVEIKRTVAAPSVFIFPPSDEQLKSGTASVVCLLNNFYPREAKVQWKVDNALQSGNSQESVTEQDSKDSTYSLSSTLTLSKADYEKHKVYACEVTHQGLSSPVTKSFNRGEC | 0.8 | 0.03 | – | – | 3.5 | – | – |
| M103205H795-MY175/M103202L889-SK1 (antibody, human IgG1, kappa, name in EU numbering, EU numbering) heavy: QVTLKESGPVLVKPTETLTLTCTVSGIDLSHDDISWVRQAPGKGLEWVGIISYAGSTYYASWAKGRLTISKDTSKNQVVLTMTNMDPVDTATYYCARGVPAYSHGGDLWGQGTLVTVSSASTKGPSVFPLAPSSKSTSGGTAALGCLVKDYFPEPVTVSWNSGALTSGVHTFPAVLQSSGLYSLSSVVTVPSSSLGTQTYICNVNHKPSNTKVDKKVEPKSCDKTHTCPPCPAPELLNGPSVFLFPPKPKDTLMISRTPEVTCVVVDVSEEDPEVKFNWYVDGVEVHNAKTKPREEQYNSTYRVVSVLTVLHQDWLNGKEYKCKVSNKALPAPIEKTISKAKGQPREPQVYTLPPSREEMTKNQVSLTCLVKGFYPSDIAVEWESNGQPENNYKTTPKVLDSDGSFFLYSKLTVDKSRWQQGNVFSCSVMHEALHNHYTQKSLSLSP light: DIVMTQSPATLSLSPGERATLSCTSSQSVYHANWLSWFQQKPGQPPKLLIYWASTLAYGVPSRFSGSGSGTDFTLTISSLQPEDAATYYCAGGYGGGRYAFGQGTKVEIKRTVAAPSVFIFPPSDEQLKSGTASVVCLLNNFYPREAKVQWKVDNALQSGNSQESVTEQDSKDSTYSLSSTLTLSKADYEKHKVYACEVTHQGLSSPVTKSFNRGEC | – | 0.14 | 2600 | – | – | 1500 | KD fold (SG1 = 1) [7]: 2.3 fold |

Second part, led by results:

| KD fold (SG1 = 1) [1] [fold] | KD fold (SG1 = 1) [2] [fold] | Kd [2] [nM] | KD fold (SG1 = 1) [3] [fold] | KD fold (SG1 = 1) [5] [fold] | Kd [1] [nM] | Binder | other results |
| --- | --- | --- | --- | --- | --- | --- | --- |
| – | 0.1 | 3500 | – | 4.7 | – | M103205H795-MY183/M103202L889-SK1 (antibody, human IgG1, kappa, name in EU numbering, EU numbering) heavy: QVTLKESGPVLVKPTETLTLTCTVSGIDLSHDDISWVRQAPGKGLEWVGIISYAGSTYYASWAKGRLTISKDTSKNQVVLTMTNMDPVDTATYYCARGVPAYSHGGDLWGQGTLVTVSSASTKGPSVFPLAPSSKSTSGGTAALGCLVKDYFPEPVTVSWNSGALTSGVHTFPAVLQSSGLYSLSSVVTVPSSSLGTQTYICNVNHKPSNTKVDKKVEPKSCDKTHTCPPCPAPELLNGPSVFLFPPKPKDTLMISRTPEVTCVVVDVSEEDPEVKFNWYVDGVEVHNAKTKPREEQYNSTYRVVSVLTVLHQDWLNGKEYKCKVSNKALPAPIEKTISKAKGQPREPQVYTLPPSREEMTKNQVSLTCLVKGFYPSDIAVEWESNGQPENNYKTTPWVLDSDGSFFLYSKLTVDKSRWQQGNVFSCSVMHEALHNHYTQKSLSLSP light: DIVMTQSPATLSLSPGERATLSCTSSQSVYHANWLSWFQQKPGQPPKLLIYWASTLAYGVPSRFSGSGSGTDFTLTISSLQPEDAATYYCAGGYGGGRYAFGQGTKVEIKRTVAAPSVFIFPPSDEQLKSGTASVVCLLNNFYPREAKVQWKVDNALQSGNSQESVTEQDSKDSTYSLSSTLTLSKADYEKHKVYACEVTHQGLSSPVTKSFNRGEC | KD fold (SG1 = 1) [4]: 2.6 fold; Kd [6]: 7700 nM |
| – | 0.04 | – | 3.9 | – | – | M103205H795-MY440/M103202L889-SK1 (antibody, human IgG1, kappa, name in EU numbering, substitutions in EU numbering, introduced into M103205H795-SG1) heavy: QVTLKESGPVLVKPTETLTLTCTVSGIDLSHDDISWVRQAPGKGLEWVGIISYAGSTYYASWAKGRLTISKDTSKNQVVLTMTNMDPVDTATYYCARGVPAYSHGGDLWGQGTLVTVSSASTKGPSVFPLAPSSKSTSGGTAALGCLVKDYFPEPVTVSWNSGALTSGVHTFPAVLQSSGLYSLSSVVTVPSSSLGTQTYICNVNHKPSNTKVDKKVEPKSCDKTHTCPPCPAPELWNGPSVFLFPPKPKDTLMISRTPEVTCVVVDVSDEDPEVKFNWYVDGVEVHNAKTKPREELYNSTYRVVSVLTVLHQDWLNGKEYKCKVSNKALPKPIEKTISKAKGQPREPQVYTLPPSREEMTKNQVSLTCLVKGFYPSDIAVEWESNGQPENNYKTTPPVLDSDGSFFLYSKLTVDKSRWQQGNVFSCSVMHEALHNHYTQKSLSLSP light: DIVMTQSPATLSLSPGERATLSCTSSQSVYHANWLSWFQQKPGQPPKLLIYWASTLAYGVPSRFSGSGSGTDFTLTISSLQPEDAATYYCAGGYGGGRYAFGQGTKVEIKRTVAAPSVFIFPPSDEQLKSGTASVVCLLNNFYPREAKVQWKVDNALQSGNSQESVTEQDSKDSTYSLSSTLTLSKADYEKHKVYACEVTHQGLSSPVTKSFNRGEC | KD fold (SG1 = 1) [6]: 0.03 fold |
